We go through one substance from patent US10370642B2, “Hematopoietic progenitor cell populations having affinity for E-selectin / L-selectin” (priority 2000, dated 2019).

In experiment [1] the test system is L-selectin. Briefly: Blot rolling assay with L-selectin-expressing lymphocytes. Format: cell-based. The note with it: 2.3 dynes/cm^2. The method, then:
L-selectin-expressing lymphocytes were isolated as previously described (Oxley, S. M. & Sackstein, R. (1994). Blood. 84:3299-3306; Sackstein, R., Fu, L. and Allen, K. L. (1997) Blood. 89:2773-2781), washed twice in HBSS and suspended at 2×10^7/ml in HBSS/10 mM HEPES/2mMCaCl2 (H/H/Ca^++)/10% glycerol. Cell lysate material is separated by SDS-PAGE and transferred to PVDF under standard blotting conditions. Western blots of KG1a membrane preparations stained with HECA-452, A3D8 or Hermes-1 were rendered transparent by incubating them in H/H/Ca^++/10% glycerol. To study L-selectin-mediated adhesive interactions, the blots were placed in the parallel plate flow chamber and lymphocytes were perfused into the chamber at a shear force of 2.3 dynes/cm^2 and cellular adhesive interactions are observed by video microscopy and analyzed in real time.
The number of lymphocytes rolling on and between each immunostained banding region was quantified from five independent fields under 200× magnification on the video monitor using molecular weight markers as guides to help align and visualize the proteins of interest. A minimum of 3 experiments were performed, and results were expressed as the mean of cell rolling/field.

In experiment [2] the test system is L-selectin. Briefly: Stamper-Woodruff assay, lymphocyte adherence to immunoprecipitated CD44 and PSGL-1. It is filed as cell-based, rat. The note with it: equimolar amounts (0.75 μg CD44, 1 μg PSGL-1); 80 rpm. The method, then:
(§1) These protein spots were then fixed in 3% glutaraldehyde, unreactive aldehyde groups were blocked in 0.2M lysine and slides were kept in RPMI-1640 without NaBicarbonate/2% FBS until ready for testing. Lymphocytes (10^7/ml RPMI-1640 without NaBicarbonate/5% FBS) were overlayed onto these fixed immunoprecipitates and incubated on an orbital shaker at 80 rpm for 30 min. at 4° C. The number of adherent lymphocytes was quantified by light microscopy using an ocular grid under 100× magnification (a minimum of 5 fields/slide, 2 slides/experiment, and 3 separate experiments). Data were presented as the mean number of bound lymphocytes±standard deviation. KG1a CD34 and L-selectin control immunoprecipitates were also tested in this manner. To verify the dependence for sialic acid, glutaraldehyde-fixed spots were treated with Vibrio cholerae neuraminidase (0.1 U/ml RPMI-1640 without NaBicarbonate/2% FBS for lhr at 37° C.).
(§2) Immunoaffinity purified material (0.75-3 μg/spot) was spotted onto glass slides for analyses in the Stamper-Woodruff assay (See below for assay description). For autoradiographic analysis of immunoprecipitated [^35S]-methionine-radiolabeled CD44 and PSGL-1, immunoprecipitates were spotted onto glass slides, allowed to dry and exposed Kodak BioMax-MR film for 12 h at −80° C. Densitometric analysis (optical density) of the autoradiograms was performed with a Hewlett-Packard Scanj et 5200C scanner and NIH Image processing and analysis program.

The target in experiment [3] is T1, L-selectin (Rattus norvegicus, UniProt P30836).
T1 construct: L-selectin naturally expressed on leukocytes; endogenous in cells; host or cells: lymphocytes (rat thoracic duct lymphocytes; human PBMC also prepared)
T1 sequence (P30836 39-372): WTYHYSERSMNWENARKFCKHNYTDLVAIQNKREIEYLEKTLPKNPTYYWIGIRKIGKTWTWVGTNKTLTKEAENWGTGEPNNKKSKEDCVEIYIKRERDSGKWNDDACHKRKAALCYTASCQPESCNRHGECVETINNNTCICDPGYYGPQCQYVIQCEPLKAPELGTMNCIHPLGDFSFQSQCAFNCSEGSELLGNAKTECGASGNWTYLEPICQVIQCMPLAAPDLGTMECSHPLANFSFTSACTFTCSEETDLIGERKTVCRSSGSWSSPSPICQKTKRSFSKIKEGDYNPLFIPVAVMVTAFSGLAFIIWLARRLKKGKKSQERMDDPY
Described as above. Format: cell-based. The note with it: 80 rpm. The method, then:
as §1, §2

A further experiment has as its target T2, E-selectin (Homo sapiens, UniProt P16581).
T2 construct: stably transfected with full-length cDNA encoding human E-selectin; expressed in transfected cells
T2 sequence (P16581 22-610): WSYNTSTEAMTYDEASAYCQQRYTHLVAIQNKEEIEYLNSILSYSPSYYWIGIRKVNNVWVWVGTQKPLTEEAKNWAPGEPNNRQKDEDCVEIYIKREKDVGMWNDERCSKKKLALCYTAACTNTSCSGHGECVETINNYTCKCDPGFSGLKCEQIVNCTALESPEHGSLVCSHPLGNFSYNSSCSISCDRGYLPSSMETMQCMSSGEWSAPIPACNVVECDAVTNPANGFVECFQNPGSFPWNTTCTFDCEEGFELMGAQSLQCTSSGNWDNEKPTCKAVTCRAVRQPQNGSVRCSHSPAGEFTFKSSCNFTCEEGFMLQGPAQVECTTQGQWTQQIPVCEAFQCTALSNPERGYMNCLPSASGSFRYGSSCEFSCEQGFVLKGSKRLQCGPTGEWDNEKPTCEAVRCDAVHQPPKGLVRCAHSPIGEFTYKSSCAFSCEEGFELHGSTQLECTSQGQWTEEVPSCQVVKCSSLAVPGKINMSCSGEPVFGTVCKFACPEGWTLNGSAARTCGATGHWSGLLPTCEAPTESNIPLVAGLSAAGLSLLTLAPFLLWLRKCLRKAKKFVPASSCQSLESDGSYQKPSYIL
Briefly: CHO-E cell rolling on immobilized immunoprecipitates, parallel-plate flow chamber. It is filed as cell-based. Particulars: immunoprecipitates on plastic; 2.8 dynes/cm^2. As to the method: CD44 was immunoprecipitated from untreated cell lysates or from cell lysates treated with N-glycosidase-F (0.8 U/ml) Vibrio cholerae neuraminidase (0.1 U/ml) or a-L-fucosidase (80 mU/ml), and PSGL-1 was immunoprecipitated from untreated cell lysates as previously described (Sackstein and Dimitroff, 2000; Dimitroff et al., 2000).
CD44 or PSGL-1 immunoprecipitates were spotted onto plastic petri dishes, fixed in 3% glutaraldehyde and incubated in 0.2M lysine to block unreactive aldehyde groups, and then non-specific binding was prevented by incubating in 100% FBS for 1 hr at RT. Fixed spots were also treated with Vibrio cholerae neuraminidase (0.1 U/ml assay medium), which was overlaid onto the spots and incubated at 37° C. for 1 hr. […] The flow rate was then increased to achieve a shear stress of 2.8 dynes/cm^2. The frequency of cells rolling per 100× magnification field was determined, and data were expressed as the mean±standard deviation of 8 fields visualized from a minimum of 3 experiments.

Consider “KG1a CD44: glycoform of CD44 with HECA-452 reactive sialylated, fucosylated N-glycans, immunoprecipitated from KG1a cells with Hermes-1”, for which the “L-selectin ligand activity (lymphocyte tethering and rolling) in blot rolling assay” value in the experiment with L-selectin [1] was “supported L-selectin ligand interactions”. Moreover, the “fold greater lymphocyte binding compared with PSGL-1” value with L-selectin [2] is “up to 10 fold”. Besides, in the experiment with L-selectin [3] (0.75 μg/spot (PSGL-1 1 μg/spot), 4° C., 100× mag.), the “Mean Number of Bound Lymphocytes” value was found to be 357.8. Further, the “fold higher mean number of lymphocytes bound to CD44 than to PSGL-1” value in the experiment with L-selectin [3] (p<0.001) is given as 3 fold. Further, the “E-selectin ligand activity (CHO-E cell rolling)” value with E-selectin is listed as “exhibited E-selectin ligand activity over a range of shear stress”.
